Laboratory results: the RNAGym collection of RNA variant scans (doi:10.7554/elife.80360)

B1: HDV Ribozyme (parent)
chain: GGCCGGCAUGGUCCCAGCCUCCUCGCUGGCGCCGGCUGGGCAACAUUCCGAGGGGACCGUCCCCUCGGUAAUGGCGAAUGGGACCCA

Variants of: B1
Assay: self-cleavage, relative activity (ratio to wild type); higher = more cleavage; co-transcriptional

Variant	self-cleavage
GGCCGGCAUGGUCCCAGCCUCCUCGCUGGCGCUGGUUGGGCAACAUUCCGAGGGGACCGUCCCCUCGGUAAUGGCGAAUGGGACCCA [C33U C36U]	0.519
GGCCGGCGUGGUCCCAGCCUCCUCGCUGGCGCCGGCUGGGCAACAUUCCGAGGGGACCGUCCCCUCGGUAAUUGCGAAUGGGACCCA [A8G G73U]	0.148
CGCCGGCAUGGUCCCAGCCUCCUCGCUGGCGCCGGCUGGGCAACCUUCCGAGGGGACCGUCCCCUCGGUAAUGGCGAAUGGGACCCA [G1C A45C]	0.145
GGCCAGCAUGGUCCCAGCCUCCUCGCUGGCGCCGGCUAGGCAACAUUCCGAGGGGACCGUCCCCUCGGUAAUGGCGAAUGGGACCCA [G5A G38A]	0.147
GGCCGGCAUGGUCCCAGCCUCCUCGCUGGCGCCGGCCGGGCAACAUUCCGAGGGGACCGUCGCCUCGGUAAUGGCGAAUGGGACCCA [U37C C62G]	0.0723
GGCCGGCAUGGUCCCAGCCUCCUCGCUGGCGCCGGCUGGGCAACAUUCCGAGGGGAUCGUCCCCUCGGUAAUUGCGAAUGGGACCCA [C57U G73U]	0.338
GGCCGGCAUGGUCCCAGCCUCCUCGCUGGCGCCGGCUGGGCAACAUUCCGAGGGGACCAUCCCCUCGGUAAUGGCGCAUGGGACCCA [G59A A77C]	0.475
GGCCGGCAUGGUCCCAGCAUCCUCGCUGGCGCCGGCUGGGCAACAUUCCGAGGGGACCGUCCCCUCGGUAAUGGCGAAUGGGACCCG [C19A A87G]	0.11
GGCCGGCAUGGUCCCAGCCUCCUCGCUGGCGCCGGCUGGGCAACAUUCCGAGGGGACCGUCCCCUCUGUAAUGGCGCAUGGGACCCA [G67U A77C]	0.373
GGCCGGCAUGGUCCCAGCCUCCUCGCUGGCGCCGGCUGGGCAACAUUCCGAGGUGACCGGCCCCUCGGUAAUGGCGAAUGGGACCCA [G54U U60G]	0.989
GGCCGGCAUGGUCCCAGACUCCUCGCUGGCGCCGGCUGGGCAACAUUCCGAGGGGGCCGUCCCCUCGGUAAUGGCGAAUGGGACCCA [C18A A56G]	0.162
GGCCGGCAUGGUCCCAGCCUCCUCGCUGGCGCAGGCUGGGCAACAUUCCGAGGGGACCGUACCCUCGGUAAUGGCGAAUGGGACCCA [C33A C61A]	0.281
GGCCGGCAUGGUCACAGCCUCCUCGCUGGCGCCGGCUGGGCAACAUUACGAGGGGACCGUCCCCUCGGUAAUGGCGAAUGGGACCCA [C14A C48A]	0.485
GGCCGGCAUGGUCCCAGCCUCCUCGCUGGCGCCGGCUGGGCAACAUUCCGUGGGGACCGUCCCCUAGGUAAUGGCGAAUGGGACCCA [A51U C66A]	0.764
GGCCGGCAUGGUCCCAGCCUCCUCGCUGGCGCCGGCUGGGCAACAUUCCGGGGGGACCGUCCCCUCGGUAAUGGCGAAUGGGACCUA [A51G C86U]	1.13
GGCCGGCAUGGUCCCAGCCUCCUCGCUGGCGCCGGCUGGGCAACAUUCCGAGGGGACCGUCCCCUCGGUAAUGGCGACUUGGACCCA [A78C G80U]	0.174
GGCCGGCAUGGUCCCAGCCUCCUCGCUGGCGCCGGCUCGGCAACAUCCCGAGGGGACCGUCCCCUCGGUAAUGGCGAAUGGGACCCA [G38C U47C]	0.161
GGCCGGCAUGGUCCCAGCCUCCUCGCUGGCUCCGGCUGGGCAACAUUCCGAGGGGACCGUCCCCUCGGUAAUGUCGAAUGGGACCCA [G31U G74U]	0.136
GGCCGGCAUGGUCUCAGCCUCCUCGCUGGCGCCGGCUGGGCAACAUUCCGAGGGGACCGUCCCCUCGGUAAUGGCGAAUGGGAUCCA [C14U C84U]	0.845
GGCCGGCAUGGUCCCAGCCUCAUCGCUGGCGCCGGCUGAGCAACAUUCCGAGGGGACCGUCCCCUCGGUAAUGGCGAAUGGGACCCA [C22A G39A]	0.0528
GGCCGGCAUGGUCCCAGCCUCCUCGCUGGCGCCGGCUGGGCAACAUACCGAGGGGACCGUCCCCUCGUUAAUGGCGAAUGGGACCCA [U47A G68U]	0.944
GGCCGGCAUGGUCCCAGCCUCCUCGUUGGCGCCGGCUGGGCCACAUUCCGAGGGGACCGUCCCCUCGGUAAUGGCGAAUGGGACCCA [C26U A42C]	0.308

Variant	self-cleavage
GGCCGGCAUGGUCCCAGACUCCUCGCUGGCGCCGGCUGGGCAACAUUCCGAGGGGACCGUACCCUCGGUAAUGGCGAAUGGGACCCA [C18A C61A]	0.0615
GGCCGGCAUGGUCCCAGCCUCCUCGCUGGCGCCGGCUGGGCAACAUUCCGAGGGGACCGUCCCCUCGGGAAUGGCGAAUGGGAGCCA [U69G C84G]	0.639
GGCGGGCAUGGUCCCAGCCUCCUCGCUGGCGCCGGCUGGGCAACAUUCCGAGGGGACCGUCACCUCGGUAAUGGCGAAUGGGACCCA [C4G C62A]	0.446
GGCCGGCAUGGUCCCAGCCUCCUCGCUGGCGCCGGCUGGGCAACAUUCUGAGGGGACCGUCCCCUCGGUAAUCGCGAAUGGGACCCA [C49U G73C]	0.409
GGCCGGCAUGGUCCCAGCCGCCUCGCUGGCGCCGGCUGGGCAACAUUCCGAGGGGACCGUACCCUCGGUAAUGGCGAAUGGGACCCA [U20G C61A]	0.142
GGCCGGCAUGGUCCCAGCCUCCUCGCUCGCGCCGGCUGGGCAACAUUCCGAGGGGACCGUCCCCUCGGUAAUGGCGAAUCGGACCCA [G28C G80C]	0.166
GGCCGGCAUGGUCCCAGCCUCCUCGCUGGCGCCGGCUGGGCAACAUUCCGAGGGGGCCGUCCCCUCGGUAAUGGCGAAGGGGACCCA [A56G U79G]	0.65
GGCCGGCAUGGUCCCAGCCUCCUCGCUGGCGCAGGCUGGGCAACAUUCCGCGGGGACCGUCCCCUCGGUAAUGGCGAAUGGGACCCA [C33A A51C]	0.147
GGCCGGCCUGGUCCCAGCCUCCUCGCUGGCGCCGGCUGGGCAAUAUUCCGAGGGGACCGUCCCCUCGGUAAUGGCGAAUGGGACCCA [A8C C44U]	0.199
GGCCGGCAUGGCCCCAGCCUCCUCGCUGGCGCCGGCUGGGCAACAUUCCGAGGGGACAGUCCCCUCGGUAAUGGCGAAUGGGACCCA [U12C C58A]	0.475
GGCCGGCAGGGUCCCAGCCUCCUCGCUGGCGCCGGCUGGGCAACAUUCCGAGGGGACCGUCCCCUCGGUAAUGGCGAAAGGGACCCA [U9G U79A]	0.68
GGCCGGCAUGGUCCCAGCCUCCUGGCUGGCGCCGGAUGGGCAACAUUCCGAGGGGACCGUCCCCUCGGUAAUGGCGAAUGGGACCCA [C24G C36A]	0
GGCCUGCAUGGUCCCAGCCUCCUCCCUGGCGCCGGCUGGGCAACAUUCCGAGGGGACCGUCCCCUCGGUAAUGGCGAAUGGGACCCA [G5U G25C]	0
GGCCGGCAUGGUCCCAGCCUCCUCGCAGGCGCCGGCUGGGCAACAUUCCGAGCGGACCGUCCCCUCGGUAAUGGCGAAUGGGACCCA [U27A G53C]	0.831
GGCCGGCUUGGUCCCAGCCUCCUCGCUGGCGCCGGCUGGGCAACAUUCCGAGGGGACCGUACCCUCGGUAAUGGCGAAUGGGACCCA [A8U C61A]	0.831
GGCCGGCAUGGUCCCAGCCUCCUCGCUGGCGCCGGCUGGGCAACAUUCCGAGGGUACCGUCCCCUCGGUGAUGGCGAAUGGGACCCA [G55U A70G]	0.867
GGCCGGCAUGGUCCCAGCCUCCUCGCUGGCGCCGGCUGGGCAACAUUCCGACGGGACCGUCCCCUAGGUAAUGGCGAAUGGGACCCA [G52C C66A]	1.03
GGCCGGCAUGGUCCCAGCCUCUUCGCUGGCGCCGGCUGGGCAACAUUCCGAGGGGACCGUCCCCUCGGUAAUGGCGAAUGGGACGCA [C22U C85G]	0.811
GGCCGGCAUGGUCCCAGCCUCCGCGCUGGCGCCGGCUGGGCAACAUUCCGAGGGGACCGUCCCCUCGGUUAUGGCGAAUGGGACCCA [U23G A70U]	0.492
GACCGGCAUGGUCCCAGCCUCCUCGCUGGCGCCGGCUGGGCAACAUUCCGAGGGGACCGUCCCCUCGGUAACGGCGAAUGGGACCCA [G2A U72C]	0.0455
GGCCGGCAUGGUCCCAGCCUCCUCGCAGGCGCCGGCUGGGCAACAUUCCGAGGGGACCGUCCCCUCGGUAACGGCGAAUGGGACCCA [U27A U72C]	0.277
GGCCGGCAUGGUCCCAGCCUCCUCGCUGGCGCCGGCUGGGCAACAUUCCGAGGGGACCGUCCCCUCGGUAAGGGCGAAUGGGACGCA [U72G C85G]	0.609

Variant	self-cleavage
GGCCGGCAUGCUCCCAGCCUCAUCGCUGGCGCCGGCUGGGCAACAUUCCGAGGGGACCGUCCCCUCGGUAAUGGCGAAUGGGACCCA [G11C C22A]	0.0898
GGCCGGCAUGGUCCCAGCCUCCUCGCUGGCGCCUGCUGGGCAACAUUCCGAGGGGACCGUCCCCUCGGUAAUGGCGAGUGGGACCCA [G34U A78G]	0.111
GGCCGGCAUGGUCCCAGCCUCCUGGCUGGCGCCGGCUGGGCAACAUUCCGAGGAGACCGUCCCCUCGGUAAUGGCGAAUGGGACCCA [C24G G54A]	0
GGCCGGCAUGGUCGCAGCCUCCUCGCUGGCGCCGGCUGGGCAACACUCCGAGGGGACCGUCCCCUCGGUAAUGGCGAAUGGGACCCA [C14G U46C]	0.511
GGGCGGCAUGGUCCCAGCCUCCUCGCUGGCGCCGGCUGGGCAACAUUCCGAGGGGACCCUCCCCUCGGUAAUGGCGAAUGGGACCCA [C3G G59C]	0.903
GGCCGGCAUGGUCCCAGCCUCCUCGCUUGCGCCGGCUGGGCAACAUUCCGAGGGGACCGUCCCCUCGGUACUGGCGAAUGGGACCCA [G28U A71C]	0
GGCCGGCAUGGUCCCAGCCUCCUCGCUGGCGCCGGCUGGGCAACAUUCCGAGGGGGCCGUCCACUCGGUAAUGGCGAAUGGGACCCA [A56G C63A]	0.831
GGCCGGCAUGGUCCCAGCCUCCUCGCUGUCGCCGGCUCGGCAACAUUCCGAGGGGACCGUCCCCUCGGUAAUGGCGAAUGGGACCCA [G29U G38C]	0.0386
GGCCGGCAUGGUCCUAGCCUGCUCGCUGGCGCCGGCUGGGCAACAUUCCGAGGGGACCGUCCCCUCGGUAAUGGCGAAUGGGACCCA [C15U C21G]	0.0898
GGCCGGCAUGGUCCCAGCCUCCUCGCUGGCGCCGGCUGGGCACCAUUCCGAGGGGACCGUCCCCUCGGUAACGGCGAAUGGGACCCA [A43C U72C]	0.578
CGCCGGCAUGGUCCCAGCCUCCUCGCUGGCGCCGGCUGGGCAACAUUCCGAGGGGGCCGUCCCCUCGGUAAUGGCGAAUGGGACCCA [G1C A56G]	0.356
GGACGGCAUGGUCCCAGCCUCCUCGCUGGCGCAGGCUGGGCAACAUUCCGAGGGGACCGUCCCCUCGGUAAUGGCGAAUGGGACCCA [C3A C33A]	0.0698
GGCCGGCAUGGUCCCAGCCUCCUCGCUGGCGCGGGUUGGGCAACAUUCCGAGGGGACCGUCCCCUCGGUAAUGGCGAAUGGGACCCA [C33G C36U]	0.0997
GGCCGGCAUGGUCCCAGCCUCCUCGCUGGCGCCGGCUGGGCAACAUUCCGAGGGGACCGUACCCUCGGUAAUGGCGCAUGGGACCCA [C61A A77C]	0.527
GGCCGGCAUGGUCCCAGCCUCCUCGCUGGCGCCGGCUGGGCAACAUUCCGCGGGGAGCGUCCCCUCGGUAAUGGCGAAUGGGACCCA [A51C C57G]	1.14
GGCCGGCAUGGUCCCAGCCUCCUCGCAGGGGCCGGCUGGGCAACAUUCCGAGGGGACCGUCCCCUCGGUAAUGGCGAAUGGGACCCA [U27A C30G]	0.166
GGCCGGCAUGGUUCCAGCCUCCUCGCUGGCGCCGACUGGGCAACAUUCCGAGGGGACCGUCCCCUCGGUAAUGGCGAAUGGGACCCA [C13U G35A]	0.272
GGCCGGCAUGGCCCCAGCCUCCUCGCUGGCGCCGGCUGGGCAACAUUCCGAGGGGACCGUCCCCUCGGUAACGGCGAAUGGGACCCA [U12C U72C]	0.196
GGCCGGCAUGGUCCCAGCCUCCUCGCUGGCGCCGGCUGGGCAACAUUCCGAGGCGACCGUCGCCUCGGUAAUGGCGAAUGGGACCCA [G54C C62G]	0.855
GGCCGGCAUGGUCCCAGCCUCCUCGCUGGCGCCGGCUGGGCACCAUUCCGAGGGGACCGUCCCCGCGGUAAUGGCGAAUGGGACCCA [A43C U65G]	0.453
